Laboratory results: patent publication US11254720B2, “Methods and systems for designing and/or characterizing soluble lipidated ligand agents” (Tufts Medical Center, priority 2013, dated 2022)

Key:
CCK1R = target: T1, CCK1R (Homo sapiens, UniProt P32238); experiment: SRE-luciferase agonist assay in transfected HEK293 cells; format: cell-based; details: tethered ligand cDNA cotransfected, 24 hours
T1 construct: expressed in transfected cells; host or cells: HEK293
T1 sequence (P32238 1-428): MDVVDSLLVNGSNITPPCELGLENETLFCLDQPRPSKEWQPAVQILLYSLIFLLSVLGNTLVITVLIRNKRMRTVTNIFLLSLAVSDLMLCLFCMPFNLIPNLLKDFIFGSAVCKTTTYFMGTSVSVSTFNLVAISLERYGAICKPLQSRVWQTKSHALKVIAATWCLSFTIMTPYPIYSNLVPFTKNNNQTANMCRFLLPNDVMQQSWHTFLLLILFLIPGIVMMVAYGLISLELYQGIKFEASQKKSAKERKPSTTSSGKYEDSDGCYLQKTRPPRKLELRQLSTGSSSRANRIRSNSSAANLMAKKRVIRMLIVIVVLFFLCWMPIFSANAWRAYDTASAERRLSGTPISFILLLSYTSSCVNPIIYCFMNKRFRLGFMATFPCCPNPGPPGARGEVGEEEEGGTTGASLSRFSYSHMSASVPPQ
Protocol: (§1) A) Tethered CCK4-Gly activates the CCK2 receptor (left panel). Potency of the corresponding soluble lipidated ligand agent (1-CCK4-Gly) exceeds that of soluble CCK-4-Gly (right panel). […] HEK293 cells were transiently cotransfected with cDNAs encoding: the designated CCK receptor subtype, a 5X-SRE-Luc-pest reporter gene (pGL4.33), tethered ligand (as indicated) and a β-galactosidase gene to control for transfection efficiency. Tethered ligand activity was measured 24 hours following transfection. To assess activity of soluble and lipidated CCK-4-Gly, cells were stimulated for 4 hours with ligand. Both soluble and tethered ligand activity was quantified relative to a parallel preparation of CCK receptor expressing cells stimulated for 4 hours with soluble amidated CCK-4 (s-CCK4-NH2, 10 μM) for CCK-2R and soluble amidated CCK-8 (s-CCK8-NH2, 10 μM) for CCK-1R.
(§2) Neurokinin receptors were purchased from the Missouri S+T cDNA Resource center. […] The nucleotide sequences of all receptor coding regions and tethered ligands were confirmed by automated DNA sequencing and analyzed using Vector NTI software (Invitrogen).

CCK2R = target: T2, CCK2R (Homo sapiens, UniProt P32239); experiment: as above; format: cell-based; details: tethered ligand cDNA cotransfected, 24 hours
T2 construct: expressed in transfected cells; host or cells: HEK293
T2 sequence (P32239 1-447): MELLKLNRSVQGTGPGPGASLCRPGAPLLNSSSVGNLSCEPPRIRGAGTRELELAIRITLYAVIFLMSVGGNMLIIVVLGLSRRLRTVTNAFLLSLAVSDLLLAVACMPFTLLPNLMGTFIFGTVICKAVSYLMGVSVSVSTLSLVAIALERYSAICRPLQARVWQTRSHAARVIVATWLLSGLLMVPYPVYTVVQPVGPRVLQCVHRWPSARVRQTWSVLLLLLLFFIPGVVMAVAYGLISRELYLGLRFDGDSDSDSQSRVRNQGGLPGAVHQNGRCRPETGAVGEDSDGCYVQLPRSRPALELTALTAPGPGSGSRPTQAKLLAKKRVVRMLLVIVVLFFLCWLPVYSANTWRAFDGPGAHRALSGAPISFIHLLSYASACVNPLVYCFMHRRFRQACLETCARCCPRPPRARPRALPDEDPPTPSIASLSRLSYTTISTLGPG
Protocol: as §1, §2

Activity of membrane-tethered ligand at CCK1R (CCK1R): no activity
Substance: tCCK4-Gly: membrane-tethered glycine extended CCK4 (WMDFG) (chain (part 1 of 2) MSTSMIRDVELAEEALPKKTGGPQGSRRCLFSLFIVAGATTLFCLLHFGVI; left off: small tags and cut ends)
Activity of membrane-tethered ligand at CCK2R (CCK2R): activated the CCK2R in a concentration dependent manner
